According to patent publication US20040219514A1, “Caml-binding peptides” (priority 2000, published 2004):

Legend:
[1] = biological target: T1, CAML (Homo sapiens, UniProt P49069); conditions: published reports on human TACI fragments; cited from earlier work
T1 sequence (P49069 1-296): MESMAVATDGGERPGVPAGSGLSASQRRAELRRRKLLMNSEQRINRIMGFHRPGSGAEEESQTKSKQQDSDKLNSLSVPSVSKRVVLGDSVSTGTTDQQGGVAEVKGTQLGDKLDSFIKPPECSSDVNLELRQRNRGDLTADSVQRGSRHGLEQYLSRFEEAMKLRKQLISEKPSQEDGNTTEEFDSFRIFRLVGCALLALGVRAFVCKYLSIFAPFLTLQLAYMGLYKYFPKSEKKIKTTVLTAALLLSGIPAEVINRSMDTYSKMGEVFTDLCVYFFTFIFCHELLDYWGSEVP

[2] = test system: calcium ions from the ER; test: Efflux of calcium ions from the ER; type: cell-based; conditions: in the presence of E3/6.7K
[3] = biological target: T2, full length CAML (Homo sapiens, UniProt P49069); test: Yeast two-hybrid interaction; type: binding
T2 construct: expressed in transfected cells; host or cells: Saccharomyces cerevisiae AH109
T2 sequence (P49069 1-296): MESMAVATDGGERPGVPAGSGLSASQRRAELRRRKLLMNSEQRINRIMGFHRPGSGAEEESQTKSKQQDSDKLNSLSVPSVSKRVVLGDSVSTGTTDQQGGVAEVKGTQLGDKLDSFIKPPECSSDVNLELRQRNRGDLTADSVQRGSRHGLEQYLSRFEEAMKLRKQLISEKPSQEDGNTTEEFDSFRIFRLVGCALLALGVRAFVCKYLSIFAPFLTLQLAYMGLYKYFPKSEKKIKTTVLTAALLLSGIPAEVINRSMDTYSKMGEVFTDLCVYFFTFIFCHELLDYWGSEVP
Excerpt: (§1) pBD-6.7, a bait vector containing E3/6.7, was constructed by subdloning full length E3/6.7K cDNA in frame into the C terminus of the GAL4 DNA binding domain of vector pGBKT7 (CLONTECH). pAD-CAML was constructed by subcloning full length CAML in frame into the C terminus of the GAL4 activation domain of the prey vector pGADT7 (CLONTECH). pAD-CAML(201) was constructed by subdloning amino acids 1 to 201 of CAML in frame into the C terminus of the GAl4 activation domain of the prey vector pGADT7. The fidelity of the constructs was confirmed by sequencing.
(§2) Yeast Transformation and Selection. p]3D-6.7 and pAD-CAML or pAD-CAML(201) were transformed together into Saccharomyces cerevisiae AH109 using the Lithium Acetate Yeast Transformation procedure as described by Gietz, D., et al. (1992) Nucleic Acids Res., 20:1425. Control cotransformation of p3D-53 /pAD-T and pBD-Lam/pAD-T were also done. pBD-53/pAD-T encode fusions between the GAL4 DNA-BD and AD and murine p53 and SV40 large T-antigen, respectively. p53 and large T-antigen interact in a yeast two-hybrid assay. pBD-Lam encodes a fusion of the DNA-BD with human lamin C and provides a negative control for an interaction with pAD-T. For yeast selection, pBD containing the […] gene was selected on synthetic drop out media lacking tryptophan (SD-T). pAD contains the LEU2 gene and was selected for on SD-L (leucine).
(§3) CAML-Binding with SED. The yeast two hybrid system takes advantage of the GAL4 transcriptional activator which consists of two separable and functionally essential domains: a DNA binding domain and a domain that activates transcription. A bait gene (fragments of the E3/6.7K gene) was expressed as a fusion to the GAL4 DNA-binding domain (ED), while a prey gene (CAML) was expressed as a fusion to the GAL4 activation domain (AD). When bait and prey fusion proteins interact, the BD and AD are brought into proximity, thus activating transcription of reporter genes.

[4] = biological target: T3, full length CAML (Mus musculus, UniProt P49070); test: Yeast two-hybrid interaction; type: binding; conditions: GAL4 bait/prey
T3 construct: expressed in transfected cells; host or cells: Saccharomyces cerevisiae AH109
T3 sequence (P49070 1-294): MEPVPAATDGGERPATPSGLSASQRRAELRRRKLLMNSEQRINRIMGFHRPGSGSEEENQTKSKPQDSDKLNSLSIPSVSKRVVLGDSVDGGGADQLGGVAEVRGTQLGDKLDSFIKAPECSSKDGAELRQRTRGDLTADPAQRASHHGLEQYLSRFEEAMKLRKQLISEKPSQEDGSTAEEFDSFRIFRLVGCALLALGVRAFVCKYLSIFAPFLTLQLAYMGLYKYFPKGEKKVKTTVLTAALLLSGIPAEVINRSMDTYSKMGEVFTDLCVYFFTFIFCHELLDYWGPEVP
Excerpt: as §1, §2, §3

[5] = biological target: T4, amino acids 1 to 201 of CAML (Homo sapiens, UniProt P49069); test: Yeast two-hybrid interaction; type: binding
T4 construct: subdloning amino acids 1 to 201 of CAML in frame; expressed in transfected cells; host or cells: Saccharomyces cerevisiae AH109
T4 sequence (P49069 1-201): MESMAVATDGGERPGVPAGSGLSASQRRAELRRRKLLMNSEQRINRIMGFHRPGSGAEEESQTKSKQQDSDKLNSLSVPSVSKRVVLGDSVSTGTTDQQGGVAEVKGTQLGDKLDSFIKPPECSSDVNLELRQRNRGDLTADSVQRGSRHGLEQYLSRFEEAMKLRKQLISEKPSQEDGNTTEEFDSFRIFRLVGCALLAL
Excerpt: as §1, §2, §3

[6] = test system: U937 cells; test: Arachidonic acid release assay; type: cell-based, human
Procedure: (§4) Generation of stable U937 cell lines expressing E3/6.7K U937 human histiocytic lymphoma cells obtained from ATCC (CRL 1593) were maintained in RPMI 1640, 10% FCS, 2 mM L-glutamine, 10 mM HEPES, 100 U/ml penicillin and 100 μg/ml streptomycin in an atmosphere of 5% CO2 and 100% humidity. Cells were transfected with the appropriate construct by using the DMRIE-C cationic lipid reagent available from Life Technologies using the manufacturer's protocol. Transfected cells were maintained in medium containing geneticin G-418 sulphate at a final concentration of 800 μg/ml. Media and supplements were purchased from Life Technologies. Subclones of the transfected cell lines were generated by serial dilution and examined for expression of E3/6.7K by Northern Blotting. The expression of E3/6.7K mRNA was very similar in all the clones examined. All the G-418 resistant cells that survived the selection procedure were pooled and used for the in vitro assays, in order to avoid clonal variations known to arise in U937 cells.
Arachidonic acid release assays. […] After 20 hours of treatment the cells were centrifuged and 100 μl of supernatant out of 500 μl total was mixed with 3 ml scintillation fluid and counted. […] The counts per minute of released [3H] arachidonic acid were expressed as a percentage of the average of total incorporated [3H] arachidonic acid.

[7] = test system: U937 cells; test: Annexin V-FACS apoptosis assay; type: cell-based, human
Procedure: as §4
Annexin V-FACS apoptosis assay. Annexin V-FITC (PharMingen) was used to determine the binding of Annexin V to externalized phosphatidyl serine. […] One sample of cells was not stained and used to set up the baseline fluorescence. The cells were examined with a fluorescence-activated cell sorter SACS) on a Beckton Dickson FACS Analyzer.

B1: amino acids 1-168 of human TACI: fragment of human transmembrane activator and CAML interactor (TACI), amino acids 1-168 (protein, UniProt O14836 1-168, looked up, fragment)
chain: MSGLGRSRRGGRSRVDQEERFPQGLWTGVAMRSCPEEQYWDPLLGTCMSCKTICNHQSQRTCAAFCRSLSCRKEQGKFYDHLLRDCISCASICGQHPKQCAYFCENKLRSPVNLPPELRRQRSGEVENNSDNSGRYQGLEHRGSEASPALPGLKLSADQVALVYSTLG
[1]
  CAML-binding: did not occur

B2: E3/6.7K: 6.7K protein encoded by the adenovirus E3 region; integral membrane protein localized to the endoplasmic reticulum; expressed from transfected Ad2 cDNA (protein)
chain: MSNSSNSTSLSNFSGIGVGVILTLVILFILILALLCLRVAACCTHVCTYCQLFKRWGQHPR
modifications: Adenovirus, Ad2 E3/6.7K
notes: 6.7K protein encoded by the adenovirus E3 region; integral membrane protein localized to the endoplasmic reticulum; expressed from transfected Ad2 cDNA
[2]
  efflux of calcium ions from the ER: reduced
[3]; full length human CAML, GAL4 bait/prey
  interaction with CAML: interacts
[3]; pBD-6.7 and pAD-CAML in S. cerevisiae AH109, SD-LTHX or SD-AHLTX
  growth of yeast on interaction-selective media: able to grow on both SD-LTHX or SD-AHLTX
[4]
  interaction with CAML: interacts
[5]; 1-201 residue domain of CAML, GAL4 bait/prey
  interaction with CAML: interacts
[5]; pBD-6.7 and pAD-CAML(201) in S. cerevisiae AH109, SD-LTHX or SD-AHLTX
  growth of yeast on interaction-selective media: able to grow on both SD-LTHX or SD-AHLTX
[6]; U937-E3/6.7K cells, TNF-α and cycloheximide (CHX)
  reduction of release of [3H] arachidonic acid compared to U937neor: 60%
[6]; U937 cells transfected with E3/6.7K cDNA, stimulated with TNF-α
  decrease of [3H] arachidonic acid release compared with U937 cells transfected with vector alone: 50%
[7]; U937-E3/6.7K cells, combination of TNF-α and CHX
  reduction in apoptosis compared to U937neor: 65%
[7]; cells expressing E3/6.7K, stimulation with TNF-α
  reduction in percentage of apoptotic cells compared with U937neor: 55%

B3: 1-233 of human TACI: fragment of human TACI, amino acids 1-233 (protein, UniProt O14836 1-233, looked up, fragment)
chain: MSGLGRSRRGGRSRVDQEERFPQGLWTGVAMRSCPEEQYWDPLLGTCMSCKTICNHQSQRTCAAFCRSLSCRKEQGKFYDHLLRDCISCASICGQHPKQCAYFCENKLRSPVNLPPELRRQRSGEVENNSDNSGRYQGLEHRGSEASPALPGLKLSADQVALVYSTLGLCLCAVLCCFLVAVACFLKKRGDPCSCQPRSRPRQSPAKSSQDHAMEAGSPVSTSPEPVETCSFC
[1]
  CAML-binding: capable of binding to CAML

B4: amino acids 1-212: fragment of human TACI, amino acids 1-212 (protein, UniProt O14836 1-212, looked up, fragment)
chain: MSGLGRSRRGGRSRVDQEERFPQGLWTGVAMRSCPEEQYWDPLLGTCMSCKTICNHQSQRTCAAFCRSLSCRKEQGKFYDHLLRDCISCASICGQHPKQCAYFCENKLRSPVNLPPELRRQRSGEVENNSDNSGRYQGLEHRGSEASPALPGLKLSADQVALVYSTLGLCLCAVLCCFLVAVACFLKKRGDPCSCQPRSRPRQSPAKSSQDH
[1]
  CAML-binding: capable of binding to CAML
